IC50, inhibition of SARS-CoV-2 pseudotyped lentivirus infection and fold gain of inhibitory activity against monovalent Nb6, pseudovirus data for one substance are collected here from patent publication CN116472284A.

The test deals with SARS-CoV-2 spike on ZsGreen SARS-CoV-2-pseudotyped lentivirus (SARS-CoV-2) (UniProt P0DTC2). The test can be described thus: cell-based or functional assay.

Take “Nb6-tri (trivalent Nb6 with two 20 amino acid linkers) (VHH)”: the IC50, inhibition of SARS-CoV-2 pseudotyped lentivirus infection came out at 1.2 nM and the fold gain of inhibitory activity against monovalent Nb6, pseudovirus stood at 2000 fold.
